Reference: patent US20260132208A1 (DOMAIN THERAPEUTICS, published 2026)
Numbering of substitutions follows the chain as printed. Where “and” joins values, the source holds several entries; their conditions need not be identical. Equal entries are not always repeated.

B1: anti-CCR8 mAb 1-45 (antibody, human IgG1, kappa)
heavy: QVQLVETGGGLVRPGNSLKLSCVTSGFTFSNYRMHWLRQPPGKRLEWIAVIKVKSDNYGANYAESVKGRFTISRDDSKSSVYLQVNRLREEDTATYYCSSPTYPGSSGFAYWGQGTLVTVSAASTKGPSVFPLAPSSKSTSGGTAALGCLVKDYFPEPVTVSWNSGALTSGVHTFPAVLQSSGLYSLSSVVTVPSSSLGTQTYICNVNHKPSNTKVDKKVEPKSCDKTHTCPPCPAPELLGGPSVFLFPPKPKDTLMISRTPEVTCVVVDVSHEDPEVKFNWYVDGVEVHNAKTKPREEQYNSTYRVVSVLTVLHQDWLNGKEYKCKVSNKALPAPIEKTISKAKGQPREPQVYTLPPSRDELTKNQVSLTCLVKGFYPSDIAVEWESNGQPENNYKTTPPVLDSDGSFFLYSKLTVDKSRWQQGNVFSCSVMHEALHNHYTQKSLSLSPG
light: DIQMTQTTSSLSASLGDRVTISCRASQDISNYLNWYQQKPDGTVKLLIYYTSRLHSGVPSRFSGSGSGTDYSLTISNLEQEDIATYFCQQGNKFPPTFGGGTKLEINRTVAAPSVFIFPPSDEQLKSGTASVVCLLNNFYPREAKVQWKVDNALQSGNSQESVTEQDSKDSTYSLSSTLTLSKADYEKHKVYACEVTHQGLSSPVTKSFNRGEC
B2: anti-CCR8 mAb 1-48 (antibody, human IgG1, kappa)
heavy: QVQLVETGGGLVRPGNSLKLSCVTSGFTFSNYRMHWLRQPPGKRLEWIAVIKVKSDNYGANYAESVKGRFTISRDDSKSSVYLQVNRLREEDTATYYCSSPTYPGSSGFAYWGQGTLVTVSAASTKGPSVFPLAPSSKSTSGGTAALGCLVKDYFPEPVTVSWNSGALTSGVHTFPAVLQSSGLYSLSSVVTVPSSSLGTQTYICNVNHKPSNTKVDKKVEPKSCDKTHTCPPCPAPELLGGPDVFLFPPKPKDTLMISRTPEVTCVVVDVSHEDPEVKFNWYVDGVEVHNAKTKPREEQYNSTYRVVSVLTVLHQDWLNGKEYKCKVSNKALPLPEEKTISKAKGQPREPQVYTLPPSRDELTKNQVSLTCLVKGFYPSDIAVEWESNGQPENNYKTTPPVLDSDGSFFLYSKLTVDKSRWQQGNVFSCSVMHEALHNHYTQKSLSLSPG
light: B1 light
B3: anti-CCR8 mAb 1-33 (antibody, human IgG1, kappa)
heavy: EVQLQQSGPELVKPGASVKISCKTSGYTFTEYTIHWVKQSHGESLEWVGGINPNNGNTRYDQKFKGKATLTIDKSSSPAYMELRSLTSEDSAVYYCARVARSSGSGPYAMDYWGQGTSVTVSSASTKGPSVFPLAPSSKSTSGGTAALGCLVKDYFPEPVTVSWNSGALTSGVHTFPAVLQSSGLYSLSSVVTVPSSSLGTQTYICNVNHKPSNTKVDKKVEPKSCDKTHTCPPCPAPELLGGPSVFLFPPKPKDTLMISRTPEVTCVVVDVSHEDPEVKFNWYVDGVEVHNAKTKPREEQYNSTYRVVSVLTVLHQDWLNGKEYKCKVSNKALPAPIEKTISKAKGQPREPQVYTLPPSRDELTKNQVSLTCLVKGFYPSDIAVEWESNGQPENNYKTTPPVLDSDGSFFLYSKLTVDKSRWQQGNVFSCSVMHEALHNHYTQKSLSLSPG
light: DVVMTQTPLSLPVSLGDQASISCRCTQSLLHTNGDTYLHWYLQKPGQSPKLLIYKVSNRFSGVPDRFSGSGSGTDFTLKISRVEAEDLGVYFCSQSTHVPYTFGGGTKLEIKRTVAAPSVFIFPPSDEQLKSGTASVVCLLNNFYPREAKVQWKVDNALQSGNSQESVTEQDSKDSTYSLSSTLTLSKADYEKHKVYACEVTHQGLSSPVTKSFNRGEC
B4: anti-CCR8 mAb 1-35 (antibody, human IgG1, kappa)
heavy: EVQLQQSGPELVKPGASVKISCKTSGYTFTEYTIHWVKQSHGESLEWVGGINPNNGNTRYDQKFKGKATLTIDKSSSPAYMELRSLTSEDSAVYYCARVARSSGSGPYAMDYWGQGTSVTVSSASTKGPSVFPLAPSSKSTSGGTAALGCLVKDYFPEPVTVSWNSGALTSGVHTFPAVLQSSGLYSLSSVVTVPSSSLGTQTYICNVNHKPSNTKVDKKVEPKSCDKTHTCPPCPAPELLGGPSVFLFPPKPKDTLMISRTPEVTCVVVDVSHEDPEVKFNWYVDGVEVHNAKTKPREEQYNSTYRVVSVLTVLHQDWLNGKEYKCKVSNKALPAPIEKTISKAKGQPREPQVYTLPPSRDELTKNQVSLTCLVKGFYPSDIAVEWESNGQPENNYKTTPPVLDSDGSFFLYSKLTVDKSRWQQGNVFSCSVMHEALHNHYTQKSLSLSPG
light: B3 light
modifications: hypofucosylated (low fucosylated) Fc glycan
B5: anti-CCR8 mAb 1-17 (antibody, V domains shown)
VH: QVQLQQPGSELVRPGASVKLSCKASGYTFTSYWMHWVKQRPGQGLEWIGNIWPGSASTNYDEKFKNKATLTVDTSSSTAYMQLSSLTSEDSAVYYCIRGGKGAMDYWSQGTSVTVSS
VL: DVVMTQIPLSLPVSLGDQASISCRSSQSLENSYGNTYLNWYLQKPGQSPQLLIYRVSNRFSGVLDRFSGSGSGTDFTLKISRVEAEDLGVYFCLQVTHVPPTFGAGTKLELK
notes: Murine hybridoma mAb
B6: anti-CCR8 mAb 1-10 (antibody, V domains shown)
VH: EVQLQQSGPELVKPGASVKISCKTSGYTFTEYTIHWVKQSHGESLEWVGGINPNNGNTRYDQKFKGKATLTIDKSSSPAYMELRSLTSEDSAVYYCARVARSSGSGPYAMDYWGQGTSVTVSS
VL: DVVMTQTPLSLPVSLGDQASISCRCTQSLLHTNGDTYLHWYLQKPGQSPKLLIYKVSNRFSGVPDRFSGSGSGTDFTLKISRVEAEDLGVYFCSQSTHVPYTFGGGTKLEIK
notes: Murine hybridoma mAb
B7: anti-CCR8 mAb 1-11 (antibody, V domains shown)
VH: QVQLQQPGAELVKPGASVKMSCKATGYTFTGYNMHWVKQTPGQGLEWIGAISPGKGDTSYNLKFKGKATLTTDKSSSTAYMQLSSLTSADSAVYYCARSGGTPFAYWGQGTLVTVSA
VL: B6 VL with C25S, T26S, L30V, T32S, H39Y, S81N
notes: Murine hybridoma mAb
B8: anti-CCR8 mAb 1-16 (antibody, V domains shown)
VH: EVQLQQSGPELVKPGASVKISCKASVYSFTGSYMHWVKQSHVKSLEWIGRINPYNGATSYNQNFKDKASLTVDKSSSTAYMELHSLTSEDSAVYYCATTLLRLLDYWGQGTTLTVSS
VL: DIVMTQAAFSNPVTLGTSASISCRSSKSLLHSNGITYLYWYLQKPGQSPQLLIYQMSNLASGVPDRFSSSGSGTDFTLRISRVEAEDVGVYYCAQNLELPWTFGGGTKLEIK
notes: Murine hybridoma mAb

The binders below were run against T1, human CCR8 (human, UniProt P51685 1-355) (assay: cell-based or functional assay).

| Binder | ADCC % max lysis, HUT78 targets, NK donor 3 | ADCC % max lysis, HUT78 targets, NK donor 4 | ADCC EC50, HUT78 targets, NK donor 3 | ADCC EC50, HUT78 targets, NK donor 4 |
| --- | --- | --- | --- | --- |
| B1 | 16% | 18% | 0.291 nM | 0.406 nM |
| B2 | 25% | 30% | 0.00822 nM | 0.0489 nM |
| B3 | 14% | 15% | 0.793 nM | 1.52 nM |
| B4 | 29% | 29% | 0.195 nM | 0.282 nM |

What follows are binders tested against T1, human CCR8 (assay: flow cytometry, inhibition of hCCL1-AF647 (10 nM) binding to hCCR8-CHO cells).
Procedure: The hCCR8 transfected CHO cell line was dispatched at a density of 1.105 per well in a 96-well plate. Cells were incubated for 30 min at 4° C. with or without anti-CCR8 mAb tested at 10 μg/mL then diluted at 1/3. Unbound antibodies were washed away with PBS (Gibco, Villebon-sur-yvette, France) supplemented by 2% Fetal Bovine Serum (Invitrogen by Thermofisher Scientific, Illkirch-Graffenstaden, France) and 2 mM EDTA. […] After washing unbound ligands, CCL1 bound detection is quantified on a MacsQuant16 (Miltenyi, Gladbach, Germany) (R1 channel, 5 000 events per acquisition).
For IC₅₀ determination, a concentration response curve is performed using 8 concentrations of mAb. Curves are fitted and IC₅₀ of CCL1 binding blocking activity is calculated using the sigmoidal dose-response (variable slope) model on GraphPad Prism 9 (GraphPad Software, San Diego, CA, USA).

| Binder | IC50 |
| --- | --- |
| B5 | 1.18 µg/mL and 7.92 nM |
| B6 | ~0.6 µg/mL and 4.01 nM |
| B7 | 0.72 µg/mL and 4.82 nM |
| B8 | 6.41 µg/mL and 43 nM |

The binders below were run against T1, human CCR8 (assay: flow cytometry, hCCR8-transfected CHO-K1 cells).
Procedure: Briefly, 1.10⁵ cells per well in a 96 well plate were incubated with a dilution of unconjugated anti-CCR8 mAb at 10 μg/mL then diluted at 1/3.33, 4 dilution points (during 30 min at 4° C.). In human activated T cells model, prior to mAb incubation, cells were first incubated with 200 nM of hCCL1 (R&D Systems, Minneapolis, MN, USA) or buffer PBS (Invitrogen by Thermofisher Scientific, Illkirch-Graffenstaden, France) supplemented by 2% Fetal Bovine Serum (Invitrogen by Thermofisher Scientific, Illkirch-Graffenstaden, France) and 2 mM EDTA (Invitrogen by Thermofisher Scientific, Illkirch-Graffenstaden, France) during 1 hour at 4° C. To determine EC50 value, 8 concentrations of anti-CCR8 mAb were tested. Unbound antibodies were washed away with PBS (Invitrogen by Thermofisher Scientific, Illkirch-Graffenstaden, France) supplemented by 2% Fetal Bovine Serum (Invitrogen by Thermofisher Scientific, Illkirch-Graffenstaden, France) and 2 mM EDTA (Invitrogen by Thermofisher Scientific, Illkirch-Graffenstaden, France). Subsequently, cells are centrifuged (5 min at 400 g) and bound antibody is detected with F(ab′)2-Goat anti-Mouse IgG (H+L) Cross-Adsorbed Secondary Antibody, Alexa Fluor 488 (dilution 1/500) (Invitrogen by Thermofisher Scientific, Illkirch-Graffenstaden, France) or with F(ab′)₂-Goat anti-Human IgG Fc Secondary Antibody, PE (Invitrogen by Thermofisher Scientific, Illkirch-Graffenstaden, France) (dilution 1/1000) at 4° C. for 30 min. Detection reagent is washed away and cells are centrifuged (5 min at 400 g) and resuspended in 30 μL PBS. Bound detection antibody is quantified on a MacsQuant16 (Miltenyi, Gladbach, Germany) (B1 or B2 channel, 5000 events per acquisition). During the experiment, the respective isotype mAb controls (mouse IgG1, mouse IgG2a, mouse IgG2b, mouse IgG3 or human IgG1) (Biolegend, Amsterdam, The Netherlands) are included to exclude any unspecific binding events. EC50 values were determined via nonlinear fit “log (agonist) vs.response—Variable slope (four parameters)” function of Graphpad prism. EC50 values were not constantly determined in the same experiments.

| Binder | % positive cells | MFI fold change to isotype ctrl |
| --- | --- | --- |
| B5 | 81.6% | 9.92 fold |
| B6 | 56.2% | 4.78 fold |
| B7 | 76.2% | 8.37 fold |
| B8 | 34.7% | 2.34 fold |

These binders were tested against T2, pm5 (Y15 and Y17 sulfated; Y16 not sulfated) (assay: ELISA on coated peptide [cont.]).
T2 construct: also called sulfated CCR8 N-terminal peptide pm5
T2 sequence (peptide, as listed by the source): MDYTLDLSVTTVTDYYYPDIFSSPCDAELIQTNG
Procedure: (§1) The specific binding properties of antibodies were evaluated by ELISA with coated CCR8 related peptides (500 ng/ml) in carbonate/bicarbonate buffer. Different peptides were used as described in Table 1 (see Example 1). Each anti-CCR8 mAb was tested at 1 μg/mL then diluted at 1/10. After an incubation at room temperature during 90 min, unbound mAbs were removed by washings. […] After washings, 3,3′,5,5′-tetramethylbenzidine (TMB) (Interchim, Montluçon, France) was added for 15 min. Then the optical density (OD) was determined by using a multiplate reader (Tecan, Lyon, France) and correlated with mAb reactivity on the panel of coated peptides.

| Binder | binding result |
| --- | --- |
| B6 | binds |
| B7 | binds |

These binders were tested against T3, pm6 (Y16 and Y17 sulfated; Y15 not sulfated) (assay: ELISA on coated peptide [cont.]).
T3 construct: also called sulfated CCR8 N-terminal peptide pm6
T3 sequence (peptide, as listed by the source): as above
Procedure: as §1

| Binder | binding result |
| --- | --- |
| B6 | binds |
| B7 | binds |

What follows are binders tested against T4, pm8 (Y15, Y16 and Y17 sulfated) (assay: ELISA on coated peptide [cont.]).
T4 construct: also called sulfated CCR8 N-terminal peptide pm8
T4 sequence (peptide, as listed by the source): as above
Procedure: as §1

| Binder | binding result |
| --- | --- |
| B6 | binds |
| B7 | binds |

Each binder was assayed against T5, pm3 (Y17 sulfated; Y15 and Y16 not sulfated) (assay: ELISA on coated peptide [cont.]).
T5 construct: also called sulfated CCR8 N-terminal peptide pm3
T5 sequence (peptide, as listed by the source): as above
Procedure: as §1

| Binder | binding result |
| --- | --- |
| B6 | binds |
| B7 | binds |

Target: T1, human CCR8
Assay: cell-based or functional assay
Remark: another data set of the same source

| Binder | extrapolated top plateau of hCCL1 curve with 5 µg/mL mAb, protocol #3 |
| --- | --- |
| B5 | 193000 % of hCCL1 (100 nM) |
| B6 | 855 % of hCCL1 (100 nM) |
| B7 | 2880 % of hCCL1 (100 nM) |
| B8 | 292 % of hCCL1 (100 nM) |

Target: T1, human CCR8
Assay: cell-based or functional assay
Remark: another data set of the same source

| Binder | IC50 of CCL1-induced hCCR8 Gi2 signaling (BRET), pH 6.5 | IC50 of CCL1-induced hCCR8 Gi2 signaling (BRET), pH 7.4 |
| --- | --- | --- |
| B8 | 0.162 µg/ml and 1.08 nM | 0.152 µg/ml and 1.01 nM |

Target: T1, human CCR8
Assay: cell-based or functional assay
Remark: another data set of the same source

| Binder | residual hCCL1 (100 nM) Gi2 response, protocol #2, mAb 0.08 µg/mL | residual hCCL1 (100 nM) Gi2 response, protocol #2, mAb 0.4 µg/mL | residual hCCL1 (100 nM) Gi2 response, protocol #2, mAb 10 µg/mL | residual hCCL1 (100 nM) Gi2 response, protocol #3, mAb 0.05 µg/mL | residual hCCL1 (100 nM) Gi2 response, protocol #3, mAb 0.5 µg/mL | residual hCCL1 (100 nM) Gi2 response, protocol #3, mAb 5 µg/mL |
| --- | --- | --- | --- | --- | --- | --- |
| B5 | 99% | 83% | 56% | 116% | 90% | 45% |
| B6 | 104% | 46% | 28% | 80% | 57% | 45% |
| B7 |  |  |  | 102% | 98% | 84% |
| B8 | 97% | 96% | 84% | 96% | 81% | 73% |

Target: T1, human CCR8
Assay: cell-based or functional assay
Remark: another data set of the same source

| Binder | IC50 of CCL1-induced hCCR8 Gi2 signaling (BRET, HEK-293) |
| --- | --- |
| B5 | 0.026 µg/mL and 0.172 nM |
| B6 | 0.046 µg/mL and 0.306 nM |
| B7 | 0.129 µg/mL and 0.86 nM |
| B8 | 0.092 µg/mL and 0.616 nM |
